Data as given in article PMC6677171, “Subunit interactions and arrangements in the fission yeast Mis16–Mis18–Mis19 complex” (Life Science Alliance, 2019).

Target: Mis16 (S. pombe), full length, affinity tag removed (S. pombe), O94244
Experiment: ITC; iTC200, 30°C; 50 mM Tris pH 7.5, 100 mM NaCl, 4% glycerol, 0.5 TCEP; 26 μM protein in the cell, 260 μM peptide injected

Chain of Mis16 (S. pombe), full length, affinity tag removed (S. pombe), O94244 (O94244 whole entry): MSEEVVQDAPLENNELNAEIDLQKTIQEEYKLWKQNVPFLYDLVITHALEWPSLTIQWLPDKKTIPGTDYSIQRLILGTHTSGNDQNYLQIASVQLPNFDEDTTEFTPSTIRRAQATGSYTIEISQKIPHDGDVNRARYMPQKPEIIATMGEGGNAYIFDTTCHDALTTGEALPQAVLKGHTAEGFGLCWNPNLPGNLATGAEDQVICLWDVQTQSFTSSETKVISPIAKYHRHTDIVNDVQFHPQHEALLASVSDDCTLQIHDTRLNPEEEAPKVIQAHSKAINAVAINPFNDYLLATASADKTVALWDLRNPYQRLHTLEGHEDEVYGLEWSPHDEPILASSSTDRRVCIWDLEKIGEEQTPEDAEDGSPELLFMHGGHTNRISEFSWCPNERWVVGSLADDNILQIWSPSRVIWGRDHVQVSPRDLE

Kd: 51 nM
Binder: LHNRAFLRRNVRAVKM (modifications not checked) [Mis19 C-terminal peptide (residues 97–112) with V101 mutated, O42995 97-112]
